The values below come from PMC3683045.

The series concerns preKARS2 (cytosolic precursor of human mitochondrial lysyl-tRNA synthetase) (human), Q15046-2. Kind of series: EMSA. As to conditions: 10 mM Mg2+; unmodified T7 transcript; EMSA: 20 mM Tris-HCl pH 7.5, 150 mM NaCl, 10 mM MgCl2, 5 mM DTT, 10% glycerol, 0.1 mg/ml BSA, 30 C, 15 min; native 8% PAGE in 0.5x Tris-borate pH 8.3, 5% …. On the technique in general: A gel shift assay detects complexes by their altered migration in electrophoresis.

One may read the Kd as the concentration at which binding is half-saturated. The low end stands for tighter binding, the high end for weaker binding.

Chain of preKARS2 (cytosolic precursor of human mitochondrial lysyl-tRNA synthetase) (human), Q15046-2 (Q15046 other isoform, or with tags, fused parts or gaps): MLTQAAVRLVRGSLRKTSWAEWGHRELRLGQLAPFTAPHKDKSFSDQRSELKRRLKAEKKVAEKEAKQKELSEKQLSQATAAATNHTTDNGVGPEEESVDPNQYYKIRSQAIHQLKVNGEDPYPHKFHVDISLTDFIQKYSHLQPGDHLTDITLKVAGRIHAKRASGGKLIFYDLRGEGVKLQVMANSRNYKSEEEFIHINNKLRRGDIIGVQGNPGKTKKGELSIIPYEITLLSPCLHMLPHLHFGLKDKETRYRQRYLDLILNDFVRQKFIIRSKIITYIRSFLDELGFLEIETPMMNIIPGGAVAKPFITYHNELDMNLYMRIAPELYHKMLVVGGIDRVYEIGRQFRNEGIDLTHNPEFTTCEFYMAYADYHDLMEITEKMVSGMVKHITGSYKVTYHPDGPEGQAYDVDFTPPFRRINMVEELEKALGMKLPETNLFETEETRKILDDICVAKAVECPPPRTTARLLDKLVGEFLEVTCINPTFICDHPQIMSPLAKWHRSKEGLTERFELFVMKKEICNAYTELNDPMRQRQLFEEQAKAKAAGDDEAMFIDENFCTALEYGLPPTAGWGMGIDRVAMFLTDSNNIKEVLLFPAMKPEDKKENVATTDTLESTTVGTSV

Take tRK1 (yeast tRNALys CUU): the Kd worked out at 300 nM.
